Substitutions are numbered along the chain they refer to. In names and notes the source's numbering stands.
T1: GIPR A207V (Homo sapiens, UniProt P48546, A207V)
T1 construct: host or cells: HEK293
T1 sequence (P48546 22-466 A207V): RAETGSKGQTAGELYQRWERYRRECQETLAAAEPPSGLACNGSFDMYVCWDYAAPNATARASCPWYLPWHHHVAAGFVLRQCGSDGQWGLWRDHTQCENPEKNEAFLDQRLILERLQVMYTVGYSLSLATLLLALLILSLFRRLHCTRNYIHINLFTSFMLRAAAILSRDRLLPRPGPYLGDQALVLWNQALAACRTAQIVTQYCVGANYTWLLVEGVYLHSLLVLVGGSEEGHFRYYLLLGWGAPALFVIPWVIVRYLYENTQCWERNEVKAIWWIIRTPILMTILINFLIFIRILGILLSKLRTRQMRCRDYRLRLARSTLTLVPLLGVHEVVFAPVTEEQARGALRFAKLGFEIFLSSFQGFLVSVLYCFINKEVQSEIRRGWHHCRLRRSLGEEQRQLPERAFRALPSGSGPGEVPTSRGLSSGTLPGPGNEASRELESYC

T2: GIPR R190Q (Homo sapiens, UniProt P48546, R190Q)
T2 construct: host or cells: HEK293
T2 sequence (P48546 22-466 R190Q): T1 sequence (P48546 22-466 A207V) with R169Q, V186A

T3: GIPR W233* (Homo sapiens, UniProt P48546)
T3 construct: host or cells: HEK293
T3 sequence (P48546 22-232 limits assumed): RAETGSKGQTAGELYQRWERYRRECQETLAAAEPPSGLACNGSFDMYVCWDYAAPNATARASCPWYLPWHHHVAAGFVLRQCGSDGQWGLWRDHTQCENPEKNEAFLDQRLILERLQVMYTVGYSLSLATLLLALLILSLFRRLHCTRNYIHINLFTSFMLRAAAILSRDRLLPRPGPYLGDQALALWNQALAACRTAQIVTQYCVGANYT

T4: GIPR I221M (Homo sapiens, UniProt P48546, I221M)
T4 construct: host or cells: HEK293
T4 sequence (P48546 22-466 I221M): T1 sequence (P48546 22-466 A207V) with V186A, I200M

T5: GIPR A185V (Homo sapiens, UniProt P48546, A185V)
T5 construct: host or cells: HEK293
T5 sequence (P48546 22-466 A185V): T1 sequence (P48546 22-466 A207V) with A164V, V186A

T6: GIPR P195R (Homo sapiens, UniProt P48546, P195R)
T6 construct: host or cells: HEK293
T6 sequence (P48546 22-466 P195R): T1 sequence (P48546 22-466 A207V) with P174R, V186A

T7: GIPR R183Q (Homo sapiens, UniProt P48546, R183Q)
T7 construct: host or cells: HEK293
T7 sequence (P48546 22-466 R183Q): T1 sequence (P48546 22-466 A207V) with R162Q, V186A

T8: GIPR T168A (Homo sapiens, UniProt P48546, T168A)
T8 construct: host or cells: HEK293
T8 sequence (P48546 22-466 T168A): T1 sequence (P48546 22-466 A207V) with T147A, V186A

B1: W233* (protein)
chain: T3 sequence (P48546 22-232 limits assumed)
B2: T168A (protein)
chain: T1 sequence (P48546 22-466 A207V) with T147A, V186A
B3: I221M (protein)
chain: T1 sequence (P48546 22-466 A207V) with V186A, I200M
B4: A207V (protein)
chain: T1 sequence (P48546 22-466 A207V)
B5: R190Q (protein)
chain: T1 sequence (P48546 22-466 A207V) with R169Q, V186A
B6: P195R (protein)
chain: T1 sequence (P48546 22-466 A207V) with P174R, V186A
B7: A185V (protein)
chain: T1 sequence (P48546 22-466 A207V) with A164V, V186A
B8: R183Q (protein)
chain: T1 sequence (P48546 22-466 A207V) with R162Q, V186A

test system: GIPR variants (groups); assay: cAMP accumulation; format: cell-based, human; details: cAMP part of the in vitro group
Description: HEK293 (CRL-1573, American Type Culture Collection) and β-arrestin 1/2 knockout cells, generated from HEK293A[48], were used for cAMP measurement, homologues competition binding and β-arrestin 2 recruitment. For the internalization assay, endosomal signalling and basal receptor localization experiments, HEK293A (R70507, Thermo Fisher) cells were used. Both cell lines were cultured at 5% CO2 at 37 °C in Roswell Park Memorial Institute GlutaMAX-I supplemented with 10% fetal bovine serum, 180 units ml^−1 penicillin, and 45 g ml^−1 streptomycin. For the cAMP and binding experiments, cells were transfected with the calcium phosphate precipitation method[49]. The polyethyleneimine (PEI) transfection method was used for the β-arrestin 2 recruitment assays[50], endosomal signalling and basal receptor localization assays, while the lipofectamine transfection method was used for the internalization assay.
cAMP production was measured with the DiscoverX Hithunter cAMP assay according to the manufacturer’s protocol (DiscoverX). […] On the day of the assay, the cells were washed twice with HEPES-buffered saline (HBS) and incubated with HBS and 1 mM 3-isobutyl-1-methylxanthine for 30 min at 37 °C. […] After the incubation, the assay medium was removed from the plate and the cells were washed with 30 µl PBS and treated with 40 µl enzyme donor–lysis buffer–chemiluminescent reagents and 10 µl cAMP antibodies for 60 min before 40 µl enzyme acceptor solution added. After a 3-h incubation on a shaking table in the dark, the cAMP accumulation was measured based on luminescence with a Perkin Elmer EnVision 2104 Multilabel Microplate Reader.
For cAMP accumulation, the data were fitted as a sigmoidal curve with a Hill slope of 1; for homologous competition binding, the data were fitted as a sigmoidal curve with a Hill slope of −1.

Row | Molecule | In vitro groups (cAMP)
1 | B1 | LoF_camp
2 | B2 | LoF_camp
3 | B3 | WT-like_camp
4 | B4 | LoF_camp
5 | B5 | LoF_camp
6 | B6 | LoF_camp
7 | B7 | LoF_camp
8 | B8 | LoF_camp

same assay, conditions: cAMP production compared with WT

Row | Molecule | percentage_camp [% cAMP]
9 | B1 | <50
10 | B2 | <50
11 | B3 | >50
12 | B4 | <50
13 | B5 | <50
14 | B6 | <50
15 | B7 | <50
16 | B8 | <50

same assay, conditions: in vitro cAMP production per GIPR variant

Row | Molecule | Beta, cAMP
17 | B2 | 0.2182
18 | B3 | 0.8221
19 | B4 | 0.1592
20 | B5 | 0.008847
21 | B6 | 0.117
22 | B7 | 0.2646
23 | B8 | 0

biological target: T1, GIPR A207V; assay: cAMP accumulation; format: cell-based; details: not given

Row | Efficacy at 100pmol (cAMP) | Molecule
24 | 0.1592 | B4

test system: GIPR variants (groups); assay: β-arrestin 2 recruitment (BRET); details: arr part of the in vitro group;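 also: BRET readout of β-arrestin 2 recruitment in transiently transfected HEK293 cells expressing WT GIPR or a GIPR variant plus GPCR kinase 2, Rluc8 donor and citrine acceptor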
Description: Both cell lines were cultured at 5% CO2 at 37 °C in Roswell Park Memorial Institute GlutaMAX-I supplemented with 10% fetal bovine serum, 180 units ml^−1 penicillin, and 45 g ml^−1 streptomycin. […] The polyethyleneimine (PEI) transfection method was used for the β-arrestin 2 recruitment assays[50], endosomal signalling and basal receptor localization assays, while the lipofectamine transfection method was used for the internalization assay.
Measurement of β-arrestin 2 recruitment was performed with a BRET assay. Two days before the assay, the HEK293 cells were transiently transfected with either WT GIPR or the GIPR variants together with the donor Rluc8-Arrestin-3-Sp1, the acceptor mem-linker-citrine-SH3 and the GPCR kinase 2 to facilitate β-arrestin 2 recruitment. On assay day, the cells were washed with PBS and resuspended in PBS supplemented with 5 mmol l^−1 glucose. Subsequently, 85 µl of the cell suspension was transferred to a white 96-well plate and 10 µl of 50 µM coelenterazine-h was added.

Row | Molecule | In vitro groups (β-arrestin)
25 | B1 | LoF_arr
26 | B2 | LoF_arr
27 | B3 | LoF_arr
28 | B4 | WT-like_arr
29 | B5 | LoF_arr
30 | B6 | WT-like_arr
31 | B7 | WT-like_arr
32 | B8 | LoF_arr

same assay, conditions: in vitro β-arrestin recruitment per GIPR variant

Row | Molecule | Beta, Barr
33 | B2 | 0.2206
34 | B3 | 0.1962
35 | B4 | 0.8334
36 | B5 | 0.1131
37 | B6 | 0.8561
38 | B7 | 0.8905
39 | B8 | 0.03853

biological target: T2, GIPR R190Q; assay: cAMP accumulation; format: cell-based; details: not given

Row | Efficacy at 100pmol (cAMP) | Molecule
40 | 0.008847 | B5

biological target: T3, GIPR W233*; assay: cAMP accumulation; format: cell-based; details: not given

Row | Efficacy at 100pmol (cAMP) | Molecule
41 | 0.06458 | B1

biological target: T4, GIPR I221M; assay: cAMP accumulation; format: cell-based; details: not given

Row | Efficacy at 100pmol (cAMP) | Molecule
42 | 0.8221 | B3

biological target: T5, GIPR A185V; assay: cAMP accumulation; format: cell-based; details: not given

Row | Efficacy at 100pmol (cAMP) | Molecule
43 | 0.2646 | B7

biological target: T6, GIPR P195R; assay: cAMP accumulation; format: cell-based; details: not given

Row | Efficacy at 100pmol (cAMP) | Molecule
44 | 0.117 | B6

biological target: T7, GIPR R183Q; assay: cAMP accumulation; format: cell-based; details: not given

Row | Efficacy at 100pmol (cAMP) | Molecule
45 | 0 | B8

biological target: T8, GIPR T168A; assay: cAMP accumulation; format: cell-based; details: not given

Row | Efficacy at 100pmol (cAMP) | Molecule
46 | 0.2182 | B2
